Laboratory results: patent US6512097
Substitutions are numbered along the chain they refer to. Numbers in names are those of the source. Read-outs that look alike come from different tables or passages of the source.

Experiments:
[1] = molecular target: T1, c-erbB-2 expressed on cells (SK-OV-3, SK-BR-3) (UniProt P04626 23-1255, limits assumed); test: Scatchard on SK-OV-3 cells
T1 construct: whole, on cells; also called native c-erbB-2 expressed on cells; c-erbB-2 on SK-OV-3 cells
Procedure: (§1) All assays were performed in triplicate. […] The amount of labeled sFv bound to the cells was determined by counting the pellets in a gamma counter and the K_a, and K_d were calculated using the EBDA program (V 2.0, G. A. McPherson, 1983).

[2] = molecular target: T2, c-erbB-2 ECD with a Ser-Gly-His6 C-terminal fusion (UniProt P04626 23-652); test: SPR BIAcore
T2 construct: extracellular domain; Expressed from CHO cells, IMAC purified; coupled to a CM5 chip, coated on plates, or biotinylated with NHS-LC-biotin; also called c-erbB-2 extracellular domain; biotinylated c-erbB-2 ECD

[3] = molecular target: T2, c-erbB-2 ECD with a Ser-Gly-His6 …; test: SPR BIAcore; remark: listed apart in the source
[4] = molecular target: T1, c-erbB-2 expressed on cells (SK-OV-3, …); test: Scatchard on SK-OV-3 cells; remark: listed apart in the source
Procedure: as §1

[5] = molecular target: T1, c-erbB-2 expressed on cells (SK-OV-3, …); test: Scatchard after radioiodination, SK-OV cells
Procedure: (§2) All assays were performed in triplicate. Briefly, […] of radioiodinated sFv was added to 5×10^6 SK-OV cells in the presence of increasing concentrations of unlabeled sFv from the same preparation. After a 30 minute incubation at 20° C., the samples were washed with PBS at 4° C. and centrifuged at 500 g. The amount of labeled sFv bound to the cells was determined by counting the pellets in a gamma counter and the K_a, and K_d were calculated using the EBDA program (V 2.0, G. A. McPherson, 1983). The K_d of all the other isolated sFv were determined using surface plasmon resonance in a BIAcore (Pharmacia). In a BIAcore flow cell, approximately 1400 resonance units (RU) of c-erbB-2 ECD (25 μg/ml in 10 mM sodium acetate, pH 4.5) was coupled to a CM5 sensor chip (Johnsson et al. (1991), supra). Association and dissociation-rates were measured under continuous flow of […] using a concentration range from 50 to 800 nM. Rate constant $kon$ was determined from a plot of (1(dR/dt))/t vs concentration (Karlsson et al. (1991), supra). Rate constant $Hoff$ was determined from the dissociation part of the sensorgram at the highest concentration of sFv analyzed.
(§3) These clones were purified by IMAC after subcloning into PUC119SFI/NotmycHis, and the affinity determined by Scatchard analysis.

[6] = molecular target: T2, c-erbB-2 ECD with a Ser-Gly-His6 …; test: competition ELISA, sFv preincubated with soluble c-erbB-2 (0 to 100 nM)
Procedure: Meth. 77: 305–319). Immunolon 4 ELISA plates (Dynatech) were coated with avidin in PBS (10 μg/ml) at 4° C. overnight. Biotinylated c-erbB-2 ECD (5 μg/ml) was added to the wells and incubated for 30 min at room temperature. Bacterial supernatant containing sFv was incubated with varying concentrations of c-erbB-2 (0 to 100 nM) at 4° C. for 1 h. The amount of free sFv was then determined by transferring 100 μl of each mixture into the wells of the previously prepared ELISA plate and incubating for 1 h at 4° C. Binding of sFv was detected as under ELISA screening and the IC50 calculated as described (Friguet et al. (1985), supra)
as §3

[7] = molecular target: T2, c-erbB-2 ECD with a Ser-Gly-His6 …; test: SPR BIAcore; remark: listed apart in the source
Procedure: as §2

[8] = molecular target: T2, c-erbB-2 ECD with a Ser-Gly-His6 …; test: SPR BIAcore; remark: listed apart in the source
Procedure: as §2

[9] = molecular target: T2, c-erbB-2 ECD with a Ser-Gly-His6 …; test: SPR BIAcore; remark: listed apart in the source
[10] = molecular target: T2, c-erbB-2 ECD with a Ser-Gly-His6 …; test: SPR BIAcore (Kd ND, expression too low)
[11] = molecular target: T2, c-erbB-2 ECD with a Ser-Gly-His6 …; test: SPR BIAcore, unpurified sFv

B1: 741F8 sFv (scFv, V domains shown)
VH: EIQLVQSGPELKKPGETVKISCKASGYTFTNYGMNWVKQAPGKGLKWMGWINTNTGEPTYAEEFKGRFAFSLETSASTAYLQINNLKNEDTATYFCGRQFITYGGFANWGQGTLVTVSA
VL: DIVMTQSPKFMSTSVGDRVSISCKASQDVSTAVAWYQQKPGQSPKLLIYWTSTRHTGVPDRFTGSGSGTDYTLTISSVQAEDLALHYCQQHYRVPYTFGGGTKLEIK
Kd [1]: 54 nM | Kd [2]: 26 nM | koff [2]: 0.0064 s⁻¹ | kon [2]: 240000 M⁻¹ s⁻¹ | Kd [3]: 26 nM | koff [3]: 0.0064 s⁻¹ | kon [3]: 240000 M⁻¹ s⁻¹ | Kd [4]: 54 nM

B2: C6VLB (scFv)
scFv: QVQLLQSGAELKKPGESLKISCKGSGYSFTSYWIAWVRQMPGKGLEYMGLIYPGDSDTKYSPSFQGQVTISVDKSVSTAYLQWSSLKPSDSAVYFCARHDVGYCSSSNCAKWPEYFQHWGQGTLVTVSSGGGGSGGGGSGGGGSQSVLTQPPSVSAAPGQKVTISCSGSSSNIGNNYVSWYQQLPGTAPKLLIYSDNQRPSGVPDRFSGSKSGTSASLAISGLRSEDEADYYCAAWDDSLSGHWVFGGGTKLTVLG
notes: Light chain shuffled; mixture of monomer and dimer by gel filtration
Kd [5]: 30 nM | IC50 [6]: 10 nM

B3: C6VLD (scFv)
scFv: QVQLLQSGAELKKPGESLKISCKGSGYSFTSYWIAWVRQMPGKGLEYMGLIYPGDSDTKYSPSFQGQVTISVDKSVSTAYLQWSSLKPSDSAVYFCARHDVGYCSSSNCAKWPEYFQHWGQGTLVTVSSGGGGSGGGGSGGGGSQSVLTQPPSVSAAPGQKVTISCSGTNSNIGNNYVSWYQQLPGTAPKLLIYTNDQRPSGVPDRFSGSKSGTSASLAISGLQSEDEADYYCAAWDDSLNGWMFGGGTKLTVLG
modifications: Radioiodinated for the Scatchard assay; the label is not carried in the letters.
notes: as for B2
Kd [5]: 26 nM | IC50 [6]: 5.8 nM

B4: C6VLE (scFv)
scFv: QVQLLQSGAELKKPGESLKISCKGSGYSFTSYWIAWVRQMPGKGLEYMGLIYPGDSDTKYSPSFQGQVTISVDKSVSTAYLQWSSLKPSDSAVYFCARHDVGYCSSSNCAKWPEYFQHWGQGTLVTVSSGGGGSGGGGSGGGGSQSVLTQPPSVSAAAGQKVTISCSGSSSSIGRNYVSWNQQLPGTAPKLLIWRNNQRPSGVPDRFSGSKSGTSASLAISGVRSEDEADYYCASWDNSLSGWVFGGGTKLTVLG
modifications: Radioiodinated for the Scatchard assay; the label is not carried in the letters.
notes: as for B2
Kd [5]: 71 nM | IC50 [6]: 2.8 nM

B5: C6VLF (scFv)
scFv: QVQLLQSGAELKKPGESLKISCKGSGYSFTSYWIAWVRQMPGKGLEYMGLIYPGDSDTKYSPSFQGQVTISVDKSVSTAYLQWSSLKPSDSAVYFCARHDVGYCSSSNCAKWPEYFQHWGQGTLVTVSSGGGGSGGGGSGGGGSQSVLTQPPSMSAAPGQKVTISCSGSSSNIGNNYVSWYQQFPGTAPKLLIHDNNKRPSGIPDRISGSKSGTSASLAISGLQSDDEADYYCAAWDDSLNGWVFGGGTKLTVLG
modifications: Radioiodinated for the Scatchard assay; the label is not carried in the letters.
notes: as for B2
Kd [5]: 79 nM | IC50 [6]: 7.5 nM

B6: C6L1 sFv (scFv)
scFv: QVQLLQSGAELKKPGESLKISCKGSGYSFTSYWIAWVRQMPGKGLEYMGLIYPGDSDTKYSPSFQGQVTISVDKSVSTAYLQWSSLKPSDSAVYFCARHDVGYCSSSNCAKWPEYFQHWGQGTLVTVSSGGGGSGGGGSGGGGSQSVLTQPPSVSGAPGQWVTISCSGSSSNIGNNYVSWYQQLPGTAPKLLIYDNNKRPSGVPDRFSGSQSGTSASLAISGLRSEDEADYYCAAWDDSLSGWVFGGGTKLTVLG
notes: Light chain shuffled: C6.5 VH with new VL; also called C6L1 (light chain shuffle)
Kd [7]: 2.6 nM | koff [7]: 0.002 s⁻¹ | kon [7]: 780000 M⁻¹ s⁻¹ | Kd [8]: 2.6 nM | Kd [9]: 2.5 nM | fold higher affinity than parental [9]: 6 fold

B7: C6MH3-D7 (scFv)
scFv: QVQLLQSGAELKKPGESLKISCKGSGYSFTSYWIAWVRQMPGKGLEYMGLIYPGDSDTKYSPSFQGQVTISVDKSVSTAYLQWSSLKPSDSAVYFCARHDVGYCSSSNCAKWPEWQDPWGQGTLVTVSSGGGGSGGGGSGGGGSQSVLTQPPSVSAAPGQKVTISCSGSSSNIGNNYVSWYQQLPGTAPKLLIYGHTNRPAGVPDRFSGSKSGTSASLAISGFRSEDEADYYCASWDYTLSGWVFGGGTKLTVLG
notes: C6ML3-9 sFv, VH CDR3 library D mutant; expression too low for a purified Kd
koff [10]: 0.00031 s⁻¹

B8: C6ML3-A2 (scFv)
scFv: B7 scFv with Y103F, W115Y, Q116F, D117Q, P118H
notes: C6ML3-9 sFv, VH CDR3 library A clone; unpurified in the koff screen; also called mutant sFv with the conservative replacement of Y99F
fold lower apparent koff than wt [11]: 2.5 fold

B9: C6H1 (scFv)
chain: QVQLVESGAEVKKPRESLKISCKGSGYSFTSYEIAWVRQMPGKGLEYMGLIYPGDSDTKYSPSFQGQVTISVDKSVSTAYLQWSSLKPSDTAMYYCARHDVGYCSSSNCAKWPEYFQHWGQGTLVTVSSGGGGSGGGGSGGGGSQSVLTQPPSVSAAPGQKVTISCSGSSSNIGNNYVSWYQQLPGTAPKLLIYGHTNRPAGVPDRFSGSKSGTSASLAISGFRSEDEADYYCAAWDDSLSGWVFGGGTKLTVLG
Kd [8]: 5.9 nM | fold higher affinity than C6.5 [9]: 3 fold

B10: C6H2 (scFv)
scFv: B9 chain with E6Q, E33W, G54A, D57K, K59I, P88T
notes: Heavy chain shuffled
Kd [8]: 3.1 nM | fold higher affinity than C6.5 [9]: 5 fold

B11: C6H1L1 (scFv)
chain: B6 scFv with L5V, Q6E, L11V, G15R, W33E, S91T, V93M, F95Y
Kd [8]: 15 nM

B12: C6H2L1 (scFv)
scFv: B6 scFv with L5V, L11V, G15R, G54A, D57K, K59I, P88T, S91T, V93M, F95Y
Kd [8]: 6 nM
